Patent publication US20230357838

Legend:
APOBEC3A = APOBEC3A (UniProt P31941); settings: ssDNA deaminase control
[1] = tested on: T1, BaDa01 (Bacillus aerophilus)
T1 sequence: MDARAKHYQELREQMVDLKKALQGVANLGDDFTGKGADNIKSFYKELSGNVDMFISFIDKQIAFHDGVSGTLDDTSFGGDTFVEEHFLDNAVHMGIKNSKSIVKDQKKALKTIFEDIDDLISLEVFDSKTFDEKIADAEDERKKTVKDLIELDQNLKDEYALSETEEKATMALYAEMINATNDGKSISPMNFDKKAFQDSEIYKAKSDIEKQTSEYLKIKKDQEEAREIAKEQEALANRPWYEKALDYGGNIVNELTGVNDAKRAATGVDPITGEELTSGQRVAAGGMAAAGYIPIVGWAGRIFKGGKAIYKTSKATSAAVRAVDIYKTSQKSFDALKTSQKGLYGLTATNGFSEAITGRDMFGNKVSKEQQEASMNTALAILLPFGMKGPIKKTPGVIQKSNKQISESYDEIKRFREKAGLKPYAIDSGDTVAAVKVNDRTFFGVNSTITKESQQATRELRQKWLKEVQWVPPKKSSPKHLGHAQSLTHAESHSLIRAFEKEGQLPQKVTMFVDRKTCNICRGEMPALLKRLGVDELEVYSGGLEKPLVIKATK

[2] = tested on: T2, BcDa02 (Burkholderia cepacia)
T2 sequence: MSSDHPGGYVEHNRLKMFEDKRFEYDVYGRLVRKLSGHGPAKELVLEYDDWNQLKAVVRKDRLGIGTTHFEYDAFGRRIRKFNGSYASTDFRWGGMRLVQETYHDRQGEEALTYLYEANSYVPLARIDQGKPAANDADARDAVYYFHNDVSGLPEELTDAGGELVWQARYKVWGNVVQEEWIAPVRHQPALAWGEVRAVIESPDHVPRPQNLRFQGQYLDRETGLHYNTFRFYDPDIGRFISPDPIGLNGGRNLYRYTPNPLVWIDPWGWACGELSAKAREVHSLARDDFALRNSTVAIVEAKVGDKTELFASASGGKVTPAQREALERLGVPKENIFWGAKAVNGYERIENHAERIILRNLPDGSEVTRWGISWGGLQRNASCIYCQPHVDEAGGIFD

MGYPDa26 (unidentified) = tested on: T3, MGYPDa26 (unidentified)
T3 sequence: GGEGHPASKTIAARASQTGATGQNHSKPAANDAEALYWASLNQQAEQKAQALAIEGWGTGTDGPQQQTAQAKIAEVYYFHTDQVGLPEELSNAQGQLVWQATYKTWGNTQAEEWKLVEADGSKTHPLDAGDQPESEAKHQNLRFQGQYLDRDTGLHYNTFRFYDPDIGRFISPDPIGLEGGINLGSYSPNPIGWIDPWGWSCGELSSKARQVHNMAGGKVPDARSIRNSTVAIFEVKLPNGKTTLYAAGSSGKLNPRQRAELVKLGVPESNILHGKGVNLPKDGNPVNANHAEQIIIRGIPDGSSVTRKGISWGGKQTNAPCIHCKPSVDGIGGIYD

CbDa01 (unidentified) = settings: CG 0.760, CH 0.022
MGYPDa23 (unidentified) = tested on: T4, MGYPDa23 (unidentified)
T4 sequence: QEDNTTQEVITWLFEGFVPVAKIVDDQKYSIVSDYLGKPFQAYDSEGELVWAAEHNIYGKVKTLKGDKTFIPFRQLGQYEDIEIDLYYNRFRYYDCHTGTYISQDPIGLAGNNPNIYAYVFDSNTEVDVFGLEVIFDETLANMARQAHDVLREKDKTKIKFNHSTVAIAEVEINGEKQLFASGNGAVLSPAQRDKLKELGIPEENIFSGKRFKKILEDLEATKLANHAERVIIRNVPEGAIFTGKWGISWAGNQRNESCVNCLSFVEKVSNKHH

[3] = tested on: SaDa02 (Streptomyces sp.)
[4] = tested on: T5, CsDa01 (Chitinophaga silvisoli)
T5 sequence: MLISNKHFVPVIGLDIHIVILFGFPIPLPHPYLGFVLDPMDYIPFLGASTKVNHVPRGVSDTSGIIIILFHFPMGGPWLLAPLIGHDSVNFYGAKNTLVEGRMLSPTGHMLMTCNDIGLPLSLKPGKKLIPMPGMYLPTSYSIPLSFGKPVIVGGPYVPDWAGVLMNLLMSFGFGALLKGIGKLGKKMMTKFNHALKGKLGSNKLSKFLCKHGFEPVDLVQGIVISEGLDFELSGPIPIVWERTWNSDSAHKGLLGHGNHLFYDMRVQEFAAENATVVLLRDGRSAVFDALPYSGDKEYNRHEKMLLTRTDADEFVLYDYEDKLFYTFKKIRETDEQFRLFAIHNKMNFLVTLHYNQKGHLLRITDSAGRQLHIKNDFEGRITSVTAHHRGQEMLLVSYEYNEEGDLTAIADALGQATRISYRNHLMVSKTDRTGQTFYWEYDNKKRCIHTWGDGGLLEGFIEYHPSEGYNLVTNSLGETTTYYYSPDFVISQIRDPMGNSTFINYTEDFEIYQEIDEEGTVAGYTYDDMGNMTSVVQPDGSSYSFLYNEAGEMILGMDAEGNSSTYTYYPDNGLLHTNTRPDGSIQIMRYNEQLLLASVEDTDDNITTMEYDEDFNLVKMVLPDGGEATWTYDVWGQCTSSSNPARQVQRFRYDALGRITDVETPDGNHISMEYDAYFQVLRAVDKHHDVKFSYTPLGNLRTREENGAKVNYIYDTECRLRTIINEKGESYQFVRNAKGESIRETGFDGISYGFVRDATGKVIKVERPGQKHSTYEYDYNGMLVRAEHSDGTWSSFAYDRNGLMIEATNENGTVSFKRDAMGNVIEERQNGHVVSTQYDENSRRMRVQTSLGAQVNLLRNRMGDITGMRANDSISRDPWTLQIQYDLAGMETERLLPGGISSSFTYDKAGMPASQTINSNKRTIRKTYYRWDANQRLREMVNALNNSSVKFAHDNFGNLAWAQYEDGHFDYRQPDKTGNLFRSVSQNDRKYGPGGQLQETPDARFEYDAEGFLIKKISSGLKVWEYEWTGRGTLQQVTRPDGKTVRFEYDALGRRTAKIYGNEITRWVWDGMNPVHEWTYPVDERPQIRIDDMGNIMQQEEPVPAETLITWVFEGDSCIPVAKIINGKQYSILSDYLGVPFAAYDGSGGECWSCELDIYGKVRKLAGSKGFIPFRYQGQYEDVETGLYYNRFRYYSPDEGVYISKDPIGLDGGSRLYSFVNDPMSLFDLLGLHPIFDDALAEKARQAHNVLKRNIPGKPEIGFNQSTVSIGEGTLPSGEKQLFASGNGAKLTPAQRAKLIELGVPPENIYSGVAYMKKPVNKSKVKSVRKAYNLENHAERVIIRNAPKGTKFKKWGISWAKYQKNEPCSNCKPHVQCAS

Sequence of APOBEC3A (P31941 other isoform, or with tags, fused parts or gaps): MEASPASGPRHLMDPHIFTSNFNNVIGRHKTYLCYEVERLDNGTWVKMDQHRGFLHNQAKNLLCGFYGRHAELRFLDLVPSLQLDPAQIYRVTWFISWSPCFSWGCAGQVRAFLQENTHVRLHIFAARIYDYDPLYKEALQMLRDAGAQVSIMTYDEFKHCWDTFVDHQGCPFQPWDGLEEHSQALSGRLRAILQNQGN

unmodified dsDNA (E. coli C2566 genomic)
activity (fraction deaminated) (APOBEC3A): 0.331 | activity (fraction deaminated) [1]: 0.612 | activity (fraction deaminated) [2]: 0.772 | activity (fraction deaminated) (MGYPDa26 (unidentified)): 0.929 | activity (fraction deaminated) (CbDa01 (unidentified)): 0.24 | activity (fraction deaminated) (MGYPDa23 (unidentified)): 0.935 | activity (fraction deaminated) [3]: 0.607 | activity (fraction deaminated) [4]: 0.913
